Assay results as given in paper PMC2757048.
Like-named read-outs stand apart in the source and are kept apart here.

What was measured:
[1] = molecular target: paclitaxel-stabilized microtubules (UniProt P02550); test: co-sedimentation
[2] = molecular target: paclitaxel-stabilized microtubules (UniProt P02550); test: co-sedimentation; remark: listed apart in the source
[3] = molecular target: paclitaxel-stabilized microtubules (UniProt P02550)
[4] = molecular target: paclitaxel-stabilized microtubules (UniProt P02550); test: co-sedimentation; remark: listed apart in the source

UniProt P02550, sequence (P02550 whole entry, chain 1 of 2): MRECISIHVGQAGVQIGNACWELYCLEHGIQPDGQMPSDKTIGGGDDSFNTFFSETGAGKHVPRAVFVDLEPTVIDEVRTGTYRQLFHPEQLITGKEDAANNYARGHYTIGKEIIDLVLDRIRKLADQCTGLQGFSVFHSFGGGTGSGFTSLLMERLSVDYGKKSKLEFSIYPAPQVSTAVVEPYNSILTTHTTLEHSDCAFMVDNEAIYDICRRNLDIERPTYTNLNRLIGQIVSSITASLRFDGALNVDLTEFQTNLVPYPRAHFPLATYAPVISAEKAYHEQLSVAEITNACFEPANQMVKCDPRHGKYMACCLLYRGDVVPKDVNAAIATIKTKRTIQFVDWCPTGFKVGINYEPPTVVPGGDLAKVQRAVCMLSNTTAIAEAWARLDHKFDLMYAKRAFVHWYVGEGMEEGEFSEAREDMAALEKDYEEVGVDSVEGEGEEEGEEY
UniProt P02550, sequence (P02554 whole entry, chain 2 of 2, further chain): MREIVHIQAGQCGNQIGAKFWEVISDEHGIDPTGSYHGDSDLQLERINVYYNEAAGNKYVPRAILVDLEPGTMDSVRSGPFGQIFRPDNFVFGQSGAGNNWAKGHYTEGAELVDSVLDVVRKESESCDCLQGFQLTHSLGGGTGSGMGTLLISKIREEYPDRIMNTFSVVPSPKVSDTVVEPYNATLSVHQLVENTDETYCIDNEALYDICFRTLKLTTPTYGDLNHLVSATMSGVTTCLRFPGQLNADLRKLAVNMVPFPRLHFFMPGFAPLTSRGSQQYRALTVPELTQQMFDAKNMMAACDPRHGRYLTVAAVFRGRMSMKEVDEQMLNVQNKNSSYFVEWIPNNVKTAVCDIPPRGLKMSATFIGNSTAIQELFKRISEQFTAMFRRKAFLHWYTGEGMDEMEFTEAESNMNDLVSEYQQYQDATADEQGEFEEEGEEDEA

| Substance | Kd [1] | Kd [2] | Km(MT) of MT-activated steady-state ATPase, untreated dynein, 1 mM ATP, 25 °C [3] | Kd [4] |
| --- | --- | --- | --- | --- |
| HFG380 L3339C I3517C double-Cys mutant, oxidized (stalk coiled coil locked in the −β registry), P34036 1388-4730 | > 10 µM | > 10 µM |  |  |
| HFG380 L3339C I3517C double-Cys mutant, untreated, P34036 1388-4730 |  | > 10 µM | 26.6 µM |  |
| HFG380 L3339C Q3510C double-Cys mutant, oxidized (stalk coiled coil locked in the +β registry), P34036 1388-4730 | > 10 µM | > 10 µM |  |  |
| HFG380 L3339C Q3510C double-Cys mutant, untreated, P34036 1388-4730 |  | > 10 µM | 40.5 µM | 0.61 µM |
| HFG380 Q3340C I3513C double-Cys mutant, untreated, P34036 1388-4730 |  | > 10 µM | 14.5 µM | 0.65 µM |
